From paper doi:10.1101/2021.02.13.431076

Molecular target: GOLD domain of human TMED1 (p24γ1), signal peptide-free (human) (UniProt Q13445)
Assay: SEC

stoichiometry N: 2
Substance: GOLD domain of human TMED1 (p24γ1), signal peptide-free (from UniProt Q13445 24-130) (domain or fragment)
